This data set relates to amyloid beta plaques. Put plainly: Amyloid beta plaque load in hippocampus, Congo red staining. Type of data set: in vivo, transgenic APP/PS1 mice. Particulars: APP/PS1 mice; 8 injections; all three groups compared; n=5. The method, then:
Animals: All animal studies were carried out under the approved animal protocol (AUS-74-11) granted by Institutional Animal Care and Use Committee (IACUC) at The University of Kansas. Animal Care Unit (ACU) personnel and veterinarians were involved in the care of the animals used in this study. Female transgenic APP/PS1 (MMRRC stock #34832-Jax) were obtained from Jackson Laboratory (Bar Harbor, Me.) and housed until at least 6 months of age. Mice received intravenous (i.v.) injections of either BDNF (5.7 nmol/kg)+ADTC5 (10 μmol/kg; n=7), BDNF alone (5.7 nmol/kg; n=6), or vehicle (n=6) every 4 days, for a total of 8 injections. At the end of the study, the mice were euthanized via CO2 inhalation and perfused with PBS immediately followed by 4% formalin fixative solution. The brains were extracted and post-fixed overnight in the perfusion-fixation solution then transferred to 70% ethanol PBS solution for paraffin embedding.
Coronal brain sections (10 μm thickness) were generated and mounted onto gelatin-coated slides (Superfrost Plus, Thermo Fisher Scientific, Waltham, Mass.). For both Aβ histology and NG2 receptor immunohistochemistry, sections were deparaffinized using xylene and serially hydrated from 95% ethanol to distilled water. […] Aβ plaque levels were quantified by counting the number of plaques from the hippocampus at 10× magnification from 5 random sections per group (n=5).

B1: BDNF: recombinant brain-derived neurotrophic factor (13 kDa monomer), Peprotech (protein, UniProt P23560 19-247, looked up)
Neurotrophic factor BDNF …: APMKEANIRGQGGLAYPGVRTHGTLESVNGPKAGSRGLTSLADTFEHVIEELLDEDQKVRPNEENNKDADLYTSRVMLSSQVPLEPPLLFLLEEYKNYLDAANMSMRVRRHSDPARRGELSVCDSISEWVTAADKKTAVDMSGGTVTVLEKVPVSKGQLKQYFYETKCNPMGYTKEGCRGIDKRHWNSQCRTTQSYVRALTMDSKKRIGWRFIRIDTSCVCTLTIKRGR
For B1, the “amounts of amyloid beta plaques in hippocampus” value is “no significant difference”.

Values taken from patent publication US20220227815A1, “COMPOSITIONS AND METHODS USEFUL IN TREATING BRAIN DISEASES” (University of Kansas, priority 2019, published 2022).
